What all share (assay): cell-based or functional assay
In one experiment the target is hGLP-1R (Homo sapiens, UniProt P43220).
The target of experiment [1] is T1, human GIP receptor (human) (UniProt P48546).
T1 sequence (looked up): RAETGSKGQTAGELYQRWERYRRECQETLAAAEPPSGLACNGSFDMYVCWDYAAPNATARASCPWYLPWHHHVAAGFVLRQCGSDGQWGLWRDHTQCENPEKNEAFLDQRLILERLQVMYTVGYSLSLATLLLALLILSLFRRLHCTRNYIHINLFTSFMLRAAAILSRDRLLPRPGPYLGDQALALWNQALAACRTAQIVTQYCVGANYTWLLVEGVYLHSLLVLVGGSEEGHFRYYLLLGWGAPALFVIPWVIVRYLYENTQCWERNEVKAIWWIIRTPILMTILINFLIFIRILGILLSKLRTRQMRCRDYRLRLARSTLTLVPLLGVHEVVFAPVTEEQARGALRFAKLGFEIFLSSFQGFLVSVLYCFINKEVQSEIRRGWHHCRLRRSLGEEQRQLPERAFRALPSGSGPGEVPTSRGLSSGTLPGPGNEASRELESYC

Experiment [2] addresses human glucagon receptor (human) (UniProt P47871).

Sequence of hGLP-1R (P43220 24-463): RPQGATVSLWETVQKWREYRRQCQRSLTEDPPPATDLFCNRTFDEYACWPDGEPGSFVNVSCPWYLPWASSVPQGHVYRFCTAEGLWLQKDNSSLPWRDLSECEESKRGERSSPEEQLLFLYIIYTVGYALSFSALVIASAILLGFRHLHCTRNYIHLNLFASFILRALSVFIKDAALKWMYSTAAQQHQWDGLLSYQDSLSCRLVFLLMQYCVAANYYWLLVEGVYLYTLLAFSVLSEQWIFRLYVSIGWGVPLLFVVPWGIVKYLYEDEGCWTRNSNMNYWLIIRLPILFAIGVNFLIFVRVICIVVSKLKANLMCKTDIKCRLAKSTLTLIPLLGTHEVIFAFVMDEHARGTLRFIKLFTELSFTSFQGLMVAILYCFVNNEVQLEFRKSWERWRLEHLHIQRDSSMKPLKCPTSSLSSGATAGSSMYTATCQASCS
Sequence of human glucagon receptor (human) (P47871 26-477): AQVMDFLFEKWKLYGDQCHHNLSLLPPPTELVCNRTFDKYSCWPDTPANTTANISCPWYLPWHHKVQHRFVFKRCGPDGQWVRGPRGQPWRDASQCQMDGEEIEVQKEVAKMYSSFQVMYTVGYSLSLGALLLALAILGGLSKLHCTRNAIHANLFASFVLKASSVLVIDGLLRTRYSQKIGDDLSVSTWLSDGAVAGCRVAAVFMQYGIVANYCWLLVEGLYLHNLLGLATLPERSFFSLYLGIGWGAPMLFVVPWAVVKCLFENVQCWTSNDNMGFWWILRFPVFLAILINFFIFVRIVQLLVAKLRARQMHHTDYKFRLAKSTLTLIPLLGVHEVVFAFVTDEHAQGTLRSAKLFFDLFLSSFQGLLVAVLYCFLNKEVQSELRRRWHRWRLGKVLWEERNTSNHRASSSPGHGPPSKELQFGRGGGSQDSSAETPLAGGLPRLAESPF

B1: Example 1034 (peptide)
chain: YXQGTFTSDXSQXLDXKAQXAFIEYLIAGGPSSGAPPPSGSEE
modifications: non-natural residues; lipidated Lys; C-terminal amide; synthetic construct; SITE 2: note = 2-Aminoisobutyric Acid; SITE 10: note = 3-(4-Pyridyl)-L-alanine; SITE 13: note = alpha-methyl-leucine; SITE 16: note = L-ornithine; SITE 17: note = Lysine is chemically modified through conjugation of the epsilon-amino group of the Lysine side chain with D-Glutami
Consider B1, for which the figures for the cAMP Rel EC50, nM (1% HSA) (with hGLP-1R; in experiment [1]; in experiment [2]) were 317 nM, 23 nM and 1890 nM, respectively.

B2: Example 1058 (peptide)
chain: YXQGTFTSDXSQXLDXKAQXAFIEXLLEGGPSSGAPPPSGSEE
modifications: non-natural residues; lysine acylated γGlu-C18 diacid; C-terminal amide; synthetic construct; SITE 2: note = 2-Aminoisobutyric Acid; SITE 10: note = 3-(4-Pyridyl)-L-alanine; SITE 13: note = alpha-methyl-leucine; SITE 16: note = L-ornithine; SITE 17: note = Lysine is chemically modified through conjugation of the epsilon-amino group of the Lysine side chain with D-Glutami
With B2, the Relative cAMP EC50 came out at 4.48 nM with hGLP-1R, 0.139 nM in experiment [1] and 5.8 nM in experiment [2]. In addition, the figures for the cAMP Rel EC50 (1% HSA) in experiment [1] and in experiment [2] were 45.6 nM and 1450 nM, respectively.

B3: Example 1041 (peptide)
chain: YXQGTFTSDXSQXLDXKAQXAFIEXLIEGGPSSGAPPPSGSEE
modifications: Aib, 4Pal, Orn, Me4Pal, αMeY; acylated lysine; amide; synthetic construct; SITE 2: note = 2-Aminoisobutyric Acid; SITE 10: note = 3-(4-Pyridyl)-L-alanine; SITE 13: note = alpha-methyl-leucine; SITE 16: note = L-ornithine; SITE 17: note = Lysine is chemically modified through conjugation of the epsilon-amino group of the Lysine side chain with (2-[2-(2-
For the molecule B3, the cAMP Rel EC50, nM (1% HSA) with hGLP-1R was 316 nM; in experiment [1] it was 75.7 nM; in experiment [2] it was 1720 nM.

B4: Example 1046 (peptide)
chain: YXQGTFTSDXSQXLDXKAQXQFIEXLIEGGPSSGAPPPSGSEE
modifications: non-natural residues, C-terminal amide, acylated Lys with fatty diacid; synthetic construct; SITE 2: note = 2-Aminoisobutyric Acid; SITE 10: note = 3-(4-Pyridyl)-L-alanine; SITE 13: note = alpha-methyl-leucine; SITE 16: note = L-ornithine; SITE 17: note = Lysine is chemically modified through conjugation of the epsilon-amino group of the Lysine side chain with (gamma-Gl)
As for B4, the cAMP Rel EC50, nM (1% HSA) with hGLP-1R was found to be 528 nM; in experiment [1] it was 85 nM; in experiment [2] it was 1680 nM.

B5: Example 1037 (peptide)
chain: YXQGTFTSDXSQXLDKKAQXAFIEYLLAGGPSSGAPPPSGSEE
modifications: AEEA-γGlu-C18 diacid on Lys; non-natural residues; amide; synthetic construct; SITE 2: note = 2-Aminoisobutyric Acid; SITE 10: note = 3-(4-Pyridyl)-L-alanine; SITE 13: note = alpha-methyl-leucine; SITE 17: note = Lysine is chemically modified through conjugation of the epsilon-amino group of the Lysine side chain with (2-[2-(2-Amino-ethoxy)-ethoxy]-acetyl)
With B5, the figures for the cAMP Rel EC50, nM (1% HSA) (with hGLP-1R; in experiment [1]; in experiment [2]) were 625 nM, 13.7 nM and 291 nM, respectively.

B6: Example 1044 (peptide)
chain: YXQGTFTSDXSQXLDXKAQXAFIEXLIEGGPSSGAPPPSGSEE
modifications: non-natural residues, (γGlu)2-C18 diacid lysine acylation, C-terminal amide; synthetic construct; SITE 2: note = 2-Aminoisobutyric Acid; SITE 10: note = 3-(4-Pyridyl)-L-alanine; SITE 13: note = alpha-methyl-leucine; SITE 16: note = L-ornithine; SITE 17: note = Lysine is chemically modified through conjugation of the epsilon-amino group of the Lysine side chain with (gamma-Gl)
For B6, the results for the cAMP Rel EC50, nM (1% HSA) (in the experiment with hGLP-1R; in experiment [1]; in experiment [2]) were 1110 nM, 88.7 nM and 2410 nM, respectively.

B7: Example 1060 (peptide)
chain: YXQGTFTSDXSXXLDKKAQXAFIEYLIAGGPSSGAPPPSGSEE
modifications: Aib, 4Pal, Orn, αMeL, Me4Pal; acylated Lys; C-terminal amide; synthetic construct; SITE 2: note = 2-Aminoisobutyric Acid; SITE 10: note = 3-(4-Pyridyl)-L-alanine; SITE 12: note = L-ornithine; SITE 13: note = alpha-methyl-leucine; SITE 17: note = Lysine is chemically modified through conjugation of the epsilon-amino group of the Lysine side chain with (Glu)-(ga)
As for B7, the Relative cAMP EC50 with hGLP-1R was determined as 2.85 nM; in experiment [1], 0.223 nM; in experiment [2] it was 9.08 nM. Besides, the figures for the cAMP Rel EC50 (1% HSA) in experiment [1] and in experiment [2] were 44.7 nM and 4900 nM, respectively.

B8: Example 1045 (peptide)
chain: YXQGTFTSDXSQXLDXKAQXQFIEXLIEGGPSSGAPPPSGSEE
modifications: non-natural residues; lipidated Lys AEEA-γGlu-C18 diacid; C-term amide; synthetic construct; SITE 2: note = 2-Aminoisobutyric Acid; SITE 10: note = 3-(4-Pyridyl)-L-alanine; SITE 13: note = alpha-methyl-leucine; SITE 16: note = L-ornithine; SITE 17: note = Lysine is chemically modified through conjugation of the epsilon-amino group of the Lysine side chain with (2-[2-(2-
On to B8, for which the cAMP Rel EC50, nM (1% HSA) with hGLP-1R came to 276 nM; in experiment [1] it was 107 nM; in experiment [2] it was 1540 nM.

B9: Example 1043 (peptide)
chain: YXQGTFTSDXSQXLDXKAQXAFIEXLIEGGPSSGAPPPSGSEE
modifications: non-natural residues, C18 diacid-(γGlu)2 acyl on K, C-terminal amide; synthetic construct; SITE 2: note = 2-Aminoisobutyric Acid; SITE 10: note = 3-(4-Pyridyl)-L-alanine; SITE 13: note = alpha-methyl-leucine; SITE 16: note = L-ornithine; SITE 17: note = Lysine is chemically modified through conjugation of the epsilon-amino group of the Lysine side chain with (gamma-Gl)
For the molecule B9, the values for the cAMP Rel EC50, nM (1% HSA) (with hGLP-1R; in experiment [1]; in experiment [2]) were 268 nM, 44.9 nM and 2240 nM, respectively.

B10: Example 1051 (peptide)
chain: YXQGTFTSDFSXXLDKKAQXAFIEYLLAGGPSSGAPPPEGSEE
modifications: Aib, Orn, αMeL; acylated Lys; C-terminal amide; synthetic construct; SITE 2: note = 2-Aminoisobutyric Acid; SITE 12: note = L-ornithine; SITE 13: note = alpha-methyl-leucine; SITE 17: note = Lysine is chemically modified through conjugation of the epsilon-amino group of the Lysine side chain with (gamma-Glu)2-CO-(CH2)16-CO2H; SITE 20: note = 2-Am
In the case of B10, the Relative cAMP EC50 with hGLP-1R stood at 8.3 nM; in experiment [1], 0.172 nM; in experiment [2], 10.3 nM. Besides, the cAMP Rel EC50 (1% HSA) in experiment [1] came out at 32.6 nM; in experiment [2] it was 1800 nM.

B11: Example 1036 (peptide)
chain: YXQGTFTSDXSQXLDKKAQXAFIEYLLAGGPSSGAPPPSGSEE
modifications: synthetic construct; SITE 2: note = 2-Aminoisobutyric Acid; SITE 10: note = 3-(4-Pyridyl)-L-alanine; SITE 13: note = alpha-methyl-leucine; SITE 17: note = Lysine is chemically modified through conjugation of the epsilon-amino group of the Lysine side chain with (gamma-Glu)2-CO-(CH2)16-CO2H; SITE 20:
With B11, the Relative cAMP EC50 in the experiment with hGLP-1R worked out at 6.87 nM; in experiment [1] it was 0.114 nM; in experiment [2] it was 2.05 nM. The cAMP Rel EC50, nM (1% HSA) with hGLP-1R worked out at 1080 nM; in experiment [1] it was 13 nM; in experiment [2], 353 nM.

B12: Example 1059 (peptide)
chain: YXQGTFTSDXSXXLDXKAQXAFIEYLIAGGPSSGAPPPSGSEE
modifications: acylated Lys, C-terminal amide, non-natural residues; synthetic construct; SITE 2: note = 2-Aminoisobutyric Acid; SITE 10: note = 3-(4-Pyridyl)-L-alanine; SITE 12: note = L-ornithine; SITE 13: note = alpha-methyl-leucine; SITE 16: note = L-ornithine; SITE 17: note = Lysine is chemically modified through conjugation of the epsilon-amino group of the Lys
On to B12, for which the Relative cAMP EC50 is 4.61 nM with hGLP-1R, 0.468 nM in experiment [1] and 7.52 nM in experiment [2]. In addition, the cAMP Rel EC50 (1% HSA) in experiment [1] stood at 48.9 nM; in experiment [2] it was 748 nM.

B13: Example 1042 (peptide)
chain: YXQGTFTSDXSQXLDXKAQXAFIEXLIEGGPSSGAPPPSGSEE
modifications: not fully specified; non-natural residues; lipidated Lys; C-terminal amide; synthetic construct; SITE 2: note = 2-Aminoisobutyric Acid; SITE 10: note = 3-(4-Pyridyl)-L-alanine; SITE 13: note = alpha-methyl-leucine; SITE 16: note = L-ornithine; SITE 17: note = Lysine is chemically modified through conjugation of the epsilon-amino group of the Lysine side chain with (2-[2-(2-
Turning to B13, the figures for the cAMP Rel EC50, nM (1% HSA) (with hGLP-1R; in experiment [1]; in experiment [2]) were 642 nM, 84.8 nM and 1890 nM, respectively.

(Values after patent US20240270821A1, “GIP/GLP1/GCG TRI-RECEPTOR AGONISTS AND USES THEREOF” (priority 2023, published 2024).)
